pEC50: −log10 of the molar value.
Key:
[1] = target: Fc gamma receptor CD16a F variant (human) (UniProt P08637); assay: ELISA, plate coated with recombinant huCD16a (F variant), detection with peroxidase anti-human IgG F(ab')2, OD 450 nm - 630 nm
[2] = target: human Dectin-1 (isoform not given) (human) (UniProt Q9BXN2); assay: flow cytometry on human monocytes
[3] = target: cynomolgus monkey Dectin-1 (cynomolgus monkey); assay: flow cytometry, cynomolgus monkey monocytes
[4] = target: human Dectin-1 isoform A (human) (UniProt Q9BXN2); assay: flow cytometry on HEK-Blue hDectin-1a cells
[5] = target: human Dectin-1 isoform B (human) (UniProt Q9BXN2); assay: flow cytometry on HEK-Blue hDectin-1b cells
[6] = target: human Dectin-1 isoform A (human) (UniProt Q9BXN2); assay: flow cytometry on HEK293F hDectin-1a FL cells
[7] = target: cynomolgus monkey Dectin-1 (cynomolgus monkey); assay: flow cytometry on cynomolgus monkey monocytes

human Dectin-1 isoform A (human), sequence (Q9BXN2 whole entry, canonical isoform): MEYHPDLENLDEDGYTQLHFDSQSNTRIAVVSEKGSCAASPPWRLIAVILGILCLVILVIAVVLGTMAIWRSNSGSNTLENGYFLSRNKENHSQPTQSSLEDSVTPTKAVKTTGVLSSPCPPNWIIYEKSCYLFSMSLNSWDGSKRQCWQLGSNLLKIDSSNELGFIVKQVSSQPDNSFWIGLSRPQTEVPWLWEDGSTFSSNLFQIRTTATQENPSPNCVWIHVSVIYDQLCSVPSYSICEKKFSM
cynomolgus monkey Dectin-1 (cynomolgus monkey), sequence (chain, as listed by the source): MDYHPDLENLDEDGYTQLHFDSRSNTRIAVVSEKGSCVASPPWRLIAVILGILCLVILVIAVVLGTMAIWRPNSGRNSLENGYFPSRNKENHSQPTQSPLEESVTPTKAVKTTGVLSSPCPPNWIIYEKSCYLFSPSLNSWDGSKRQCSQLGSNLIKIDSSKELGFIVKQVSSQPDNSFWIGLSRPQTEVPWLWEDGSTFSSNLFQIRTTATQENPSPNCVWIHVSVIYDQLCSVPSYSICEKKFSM
human Dectin-1 (isoform not given) (human), sequence (Q9BXN2 whole entry, canonical isoform): as the sequence (Q9BXN2 whole entry, canonical isoform) above
human Dectin-1 isoform B (human), sequence (Q9BXN2 other isoform, or with tags, fused parts or gaps): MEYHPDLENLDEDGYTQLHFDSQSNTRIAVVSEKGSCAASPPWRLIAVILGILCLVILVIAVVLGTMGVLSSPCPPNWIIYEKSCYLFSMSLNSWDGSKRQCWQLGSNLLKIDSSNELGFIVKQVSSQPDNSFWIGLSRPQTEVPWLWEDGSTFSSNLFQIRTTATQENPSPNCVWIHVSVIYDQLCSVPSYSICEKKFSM
Fc gamma receptor CD16a F variant (human), sequence (P08637 17-208 limits assumed, change not shown): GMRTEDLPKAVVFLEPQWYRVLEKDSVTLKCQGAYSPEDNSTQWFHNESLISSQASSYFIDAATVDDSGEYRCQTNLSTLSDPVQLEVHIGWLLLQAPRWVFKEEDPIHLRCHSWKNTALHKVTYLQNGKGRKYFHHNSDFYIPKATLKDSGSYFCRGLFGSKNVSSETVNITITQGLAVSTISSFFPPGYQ

Row | EC50 (read off the curve) [1] [µg/mL] | pEC50 [2] | pEC50 [3] | pEC50 [4] | pEC50 [5] | pEC50 [6] | pEC50 [7] | Substance
1 | 0.07 |  |  |  |  |  |  | Control (antibody)
2 |  | 9.52 | 7.80 | 9.10 | 9.05 | 8.92 | 7.78 | commercial anti-Dectin-1 antibody 259931
3 |  | 8.85 |  | 8.72 | 7.92 | 8.62 |  | commercial anti-Dectin-1 antibody GE2

From patent publication US20250129168A1
